Assay results from patent US20160138094.

What was measured:
[1] = tested on: TALE_037 (TALE_97 with RVD N* opposite C6) repeat 5 RVD HD to N* (position 13 deleted) (Xanthomonas axonopodis pv. citri (engineered)); test: inhibition
[2] = tested on: TALE_038 (TALE_97 with RVD NG opposite C6) repeat 5 RVD HD to NG (Xanthomonas axonopodis pv. citri (engineered)); test: inhibition
[3] = 5mC at target position 6, inhibition of Klenow exo- primer extension, MgCl2, room temperature
[4] = inhibition of Klenow exo- primer extension, MgCl2, room temperature

TGGATTCCCACTCTTCAGCCCCAGCGTTACAGCATCTTCAGTGGCTTCTTCCACCGTGAGCTCTTCCGTTTCCACATCC / GGATGTGGAAACGGAAGA [t97_C6hmC / p97_rev]
IC50 ([1]; 5hmC at target position 6, reduction of primer extension to 50% at about this TALE concentration): 1500 nM
IC50 ([2]; 5hmC at target position 6, reduction of primer extension to 50%, estimated): 2000 nM

TGGATTCCCACTCTTCAGCCCCAGCGTTACAGCATCTTCAGTGGCTTCTTCCACCGTGAGCTCTTCCGTTTCCACATCC / GGATGTGGAAACGGAAGA [t97_C6mC / p97_rev]
IC50 [1, 3]: 51 nM
IC50 [2, 3]: 163 nM

TGGATTCCCACTCTTCAGCCCCAGCGTTACAGCATCTTCAGTGGCTTCTTCCACCGTGAGCTCTTCCGTTTCCACATCC / GGATGTGGAAACGGAAGA [t97 template / p97_rev primer]
IC50 [1, 4]: 60 nM
IC50 [2, 4]: 357 nM
